1 molecule from publication PMC10962640, ““Clickable” graphene nanoribbons for biosensor interfaces†” can be followed below.

Data set [1] concerns the target T1, Interleukin-6 (IL6) (human, UniProt P05231 30-212). The data set is described as follows: DPV (electrochemical aptasensor); [Fe(CN)6]4- redox probe; Hill fit, coefficient fixed at 1; Aptamer on GNR-functionalized gold electrodes, [Fe(CN)6]4- redox probe; sensing buffer, pH and temperature not given in the material (aptamer clicked in PBS 1X). The note with it: protein: commercial.

Data set [2] addresses T1, Interleukin-6 (IL6). The data set is described as follows: EIS (electrochemical aptasensor); [Fe(CN)6]4- redox probe; phase shift; Hill fit, coefficient fixed at 1; Aptamer on GNR-functionalized gold electrodes, [Fe(CN)6]4- redox probe; sensing buffer, pH and temperature not given in the material (aptamer clicked in PBS 1X). The note with it: protein: commercial.

T1 sequence (P05231 30-212): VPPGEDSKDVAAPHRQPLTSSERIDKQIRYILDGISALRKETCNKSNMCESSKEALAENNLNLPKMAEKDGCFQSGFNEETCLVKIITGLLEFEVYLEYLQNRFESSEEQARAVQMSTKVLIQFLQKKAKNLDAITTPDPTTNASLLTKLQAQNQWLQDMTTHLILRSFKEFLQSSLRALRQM

B1: IL6 DNA aptamer (azide-modified) (ssDNA)
DNA: TTTTTTCTTCCAACGCTCGTATTGTCAGTCTTTAGT
modifications: 5' azide (/5AzideN/), clicked by CuAAC to alkyne graphene nanoribbons on gold electrode
On to B1, for which the equilibrium dissociation constant (Kd) with Interleukin-6 (IL6) [1] was 3.4 ± 0.4 nM; in the data set with Interleukin-6 (IL6) [2], 10.4 ± 3.1 nM.

By Kd is commonly meant the free concentration of one partner at which half of the binding sites on the other are occupied at equilibrium, for simple one-to-one binding.
